The values that follow come from US20240398963A1 (priority 2021, published 2024).

The format of the series is physicochemical. Particulars: 10 mM PBS buffer (pH=7.4), 37° C., 100 rpm shaker; free drug by HPLC, average release per day. As to the method: The drug release and stability experiments were run using the test compounds. About 2.5±1.0 mg/mL (with regard to conjugate) solution of each test compound was prepared with 10 mM PBS buffer (pH=7.4) in Millipore Amicon® Ultra-0.5 ml 30 k Ultrafiltration centrifuge tube. The solution was kept swelling for 1 h at room temperature and then placed in a shaker at 100 rpm, 37° C. for continuous experiment. At the same time point of each day, samples were centrifuged at 10000 rpm for 1 h. The aliquot was transferred to HPLC vial for analysis. An 0.4 mL of 10 mM PBS buffer was added into the centrifuge tube and continue the experiment.
For the HPLC analysis at each time point, the peak areas of all relevant peaks from the chromatograms were retrieved and the concentration of free drug was calculated. Average release of free drug was calculated based on the sum of free drug and numbers of experiment days. The computing equation is as below.
The sample degradation rate was calculated based on the concentration and degree of substitution (NMR) for conjugated drug with regard to the initial starting point of the experiment (at t=0). The computing equation is as below.
In the case of “Conjugate of HA and 2-((6S,8S,9S,10R,11S,13S,14S,17R)-11,17-dihydroxy-6,10,13-trimethyl-3-oxo-6,7,8,9,10,11,12,13,14,15,16,17-dodecahydro-3H-cyclopenta[a]phenanthren-17-yl)-2-oxoethyl 6-aminohexanoate [Example 82]”, the Release rate amounted to 2.30 %/day.

“Conjugate of HA and 2-((2S,6αS,6βR,7S,8αS,8βS,11αR,12αS,12βS)-2,6β-difluoro-7-hydroxy-6α,8α,10,10-tetramethyl-4-oxo-1,2,4,6α,6β,7,8,8α,11α,12,12α,12β-dodecahydro-8βH-naphtho[2′,1′:4,5]indeno[1,2-d][1,3]dioxol-8β-yl)-2-oxoethyl 6-aminohexanoate [Example 23]” came in with a Release rate of 1.01 %/day.

“Conjugate of HA and 4-aminobutyl (2-((8S,9S,10R,13S,14S,17R)-17-hydroxy-10,13-dimethyl-3,11-dioxo-2,3,6,7,8,9,10,11,12,13,14,15,16,17-tetradecahydro-1H-cyclopenta[a]phenanthren-17-yl)-2-oxoethyl) carbonate [Example 66]” returned a Release rate of 11.18 %/day.

Substance “Conjugate of HA and 4-aminobutyl (2-((8S,9R,10S,11S,13S,14S,16R,17R)-9-fluoro-11,17-dihydroxy-10,13,16-trimethyl-3-oxo-6,7,8,9,10,11,12,13,14,15,16,17-dodecahydro-3H-cyclopenta[a]phenanthren-17-yl)-2-oxoethyl) carbonate [Example 70]” gave a Release rate of 3.49 %/day.

“Conjugate of HA and 2-((8S,9S,10R,11S,13S,14S,17R)-11,17-dihydroxy-10,13-dimethyl-3-oxo-6,7,8,9,10,11,12,13,14,15,16,17-dodecahydro-3H-cyclopenta[a]phenanthren-17-yl)-2-oxoethyl-5-aminopentanoate [Example 75]” returned a Release rate of 4.80 %/day.

In the case of “Conjugate of CS and 2-((8S,9S,10R,13S,14S,17R)-17-hydroxy-10,13-dimethyl-3,11-dioxo-6,7,8,9,10,11,12,13,14,15,16,17-dodecahydro-3H-cyclopenta[a]phenanthren-17-yl)-2-oxoethyl 4-aminobutanoate [Example 35]”, the Release rate is reported as 1.44 %/day.

In turn, “Conjugate of HA and 5-aminopentyl (2-((8S,9S,10R,13S,14S,17R)-17-hydroxy-10,13-dimethyl-3,11-dioxo-6,7,8,9,10,11,12,13,14,15,16,17-dodecahydro-3H-cyclopenta[a]phenanthren-17-yl)-2-oxoethyl) carbonate [Example 89]” registered a Release rate of 8.12 %/day.

“Conjugate of HA and 2-((8S,9S,10R,13S,14S,17R)-17-hydroxy-10,13-dimethyl-3,11-dioxo-6,7,8,9,10,11,12,13,14,15,16,17-dodecahydro-3H-cyclopenta[a]phenanthren-17-yl)-2-oxoethyl 5-aminopentanoate [Example 74]” had a Release rate of 4.06 %/day.

Regarding “Conjugate of HA and 4-aminobutyl (2-((8S,9S,10R,11S,13S,14S,17R)-11,17-dihydroxy-10,13-dimethyl-3-oxo-6,7,8,9,10,11,12,13,14,15,16,17-dodecahydro-3H-cyclopenta[a]phenanthren-17-yl)-2-oxoethyl) carbonate [Example 62]”, the Release rate was determined as 0.14 %/day.

“Conjugate of HA and 4-aminobutyl (2-((6S,8S,9S,10R,11S,13S,14S,17R)-11,17-dihydroxy-6,10,13-trimethyl-3-oxo-6,7,8,9,10,11,12,13,14,15,16,17-dodecahydro-3H-cyclopenta[a]phenanthren-17-yl)-2-oxoethyl) carbonate [Example 68]” registered a Release rate of 8.02 %/day.

“Conjugate of HA and 5-aminopentyl (2-((8S,9R,10S,11S,13S,14S,16R,17R)-9-fluoro-11,17-dihydroxy-10,13,16-trimethyl-3-oxo-6,7,8,9,10,11,12,13,14,15,16,17-dodecahydro-3H-cyclopenta[a]phenanthren-17-yl)-2-oxoethyl) carbonate [Example 87]” gave a Release rate of 6.96 %/day.

Take “Conjugate of CS and 2-((8S,9R,10S,11S,13S,14S,16S,17R)-9-fluoro-11,17-dihydroxy-10,13,16-trimethyl-3-oxo-6,7,8,9,10,11,12,13,14,15,16,17-dodecahydro-3H-cyclopenta[a]phenanthren-17-yl)-2-oxoethyl 4-aminobutanoate [Example 47]”: the Release rate amounted to 1.24 %/day.
